Assay results published in the supplement of paper PMC10065799, “High-throughput profiling of sequence recognition by tyrosine kinases and SH2 domains using bacterial peptide display” (eLife, 2023).

Key:
SHP2-C SH2 = assay: SH2 binding enrichment of the phosphorylated peptide, bacterial display (enrichment ratio); higher = better substrate or ligand; peptides without Tyr show the background
c-Src SH2 = assay: as above
Grb2 SH2 = Grb2 SH2 (UniProt P62993); assay: as above
FGFR3 = FGFR3 (UniProt P22607); assay: phosphorylation enrichment, bacterial display (enrichment ratio); higher = better substrate or ligand; peptides without Tyr show the background
AncSZ = assay: as above
Fes = Fes (UniProt P07332); assay: as above
Jak2 = Jak2 (UniProt O60674); assay: as above
Fyn = Fyn (UniProt P06241); assay: as above
EPHB2 = EPHB2 (UniProt P29323); assay: as above
c-Abl (mouse) = assay: as above
Fer (mouse) = assay: as above
FGFR1 = FGFR1 (UniProt P11362); assay: as above
EPHB1 = EPHB1 (UniProt P54762); assay: as above
c-Src = assay: as above
Hck = Hck (UniProt P08631); assay: as above
MERTK = MERTK (UniProt Q12866); assay: as above
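Throughout, for SH2 binding enrichment of the phosphorylated peptide, bacterial display: peptide library displayed on the E. coli surface as eCPX fusions, selected cells deep-sequenced, score is each peptide's frequency after selection divided by its frequency in the input.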
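Throughout, for phosphorylation enrichment, bacterial display: 11-residue human phosphosite peptides and single-mutation variants displayed on the E. coli surface, counted by deep sequencing, each peptide's frequency after selection divided by its frequency in the unselected input library; frequency after pTyr selection over input frequency; kinase dosed for 20-30% of maximal phosphorylation in three min.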

MERTK, sequence (Q12866 whole entry, looked up, the tested form may be a part): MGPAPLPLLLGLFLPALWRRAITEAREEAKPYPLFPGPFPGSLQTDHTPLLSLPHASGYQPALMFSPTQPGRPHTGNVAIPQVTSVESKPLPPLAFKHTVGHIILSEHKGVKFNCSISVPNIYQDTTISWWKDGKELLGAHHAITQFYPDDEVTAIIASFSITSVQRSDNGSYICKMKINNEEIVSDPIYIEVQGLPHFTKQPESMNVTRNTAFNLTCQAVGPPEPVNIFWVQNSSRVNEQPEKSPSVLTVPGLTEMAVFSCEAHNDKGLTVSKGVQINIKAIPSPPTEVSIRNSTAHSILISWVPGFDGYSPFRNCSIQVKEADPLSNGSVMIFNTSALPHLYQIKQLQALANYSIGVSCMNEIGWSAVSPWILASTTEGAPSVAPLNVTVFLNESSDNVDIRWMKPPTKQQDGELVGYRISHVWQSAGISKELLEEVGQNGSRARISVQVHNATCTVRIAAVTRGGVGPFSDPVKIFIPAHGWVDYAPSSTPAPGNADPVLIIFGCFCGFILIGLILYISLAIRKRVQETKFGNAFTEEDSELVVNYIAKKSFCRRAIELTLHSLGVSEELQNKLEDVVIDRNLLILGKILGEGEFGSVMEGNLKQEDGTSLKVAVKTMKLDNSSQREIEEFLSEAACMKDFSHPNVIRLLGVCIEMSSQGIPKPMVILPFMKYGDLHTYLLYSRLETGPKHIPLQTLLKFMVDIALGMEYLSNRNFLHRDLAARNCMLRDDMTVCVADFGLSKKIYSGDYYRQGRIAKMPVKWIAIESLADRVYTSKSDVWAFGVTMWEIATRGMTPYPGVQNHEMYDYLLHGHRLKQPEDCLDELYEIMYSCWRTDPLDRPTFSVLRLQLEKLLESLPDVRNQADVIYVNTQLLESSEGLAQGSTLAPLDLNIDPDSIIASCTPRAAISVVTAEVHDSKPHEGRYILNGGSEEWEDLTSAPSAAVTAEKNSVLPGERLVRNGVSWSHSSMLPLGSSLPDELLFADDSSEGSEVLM
EPHB2, sequence (P29323 whole entry, looked up): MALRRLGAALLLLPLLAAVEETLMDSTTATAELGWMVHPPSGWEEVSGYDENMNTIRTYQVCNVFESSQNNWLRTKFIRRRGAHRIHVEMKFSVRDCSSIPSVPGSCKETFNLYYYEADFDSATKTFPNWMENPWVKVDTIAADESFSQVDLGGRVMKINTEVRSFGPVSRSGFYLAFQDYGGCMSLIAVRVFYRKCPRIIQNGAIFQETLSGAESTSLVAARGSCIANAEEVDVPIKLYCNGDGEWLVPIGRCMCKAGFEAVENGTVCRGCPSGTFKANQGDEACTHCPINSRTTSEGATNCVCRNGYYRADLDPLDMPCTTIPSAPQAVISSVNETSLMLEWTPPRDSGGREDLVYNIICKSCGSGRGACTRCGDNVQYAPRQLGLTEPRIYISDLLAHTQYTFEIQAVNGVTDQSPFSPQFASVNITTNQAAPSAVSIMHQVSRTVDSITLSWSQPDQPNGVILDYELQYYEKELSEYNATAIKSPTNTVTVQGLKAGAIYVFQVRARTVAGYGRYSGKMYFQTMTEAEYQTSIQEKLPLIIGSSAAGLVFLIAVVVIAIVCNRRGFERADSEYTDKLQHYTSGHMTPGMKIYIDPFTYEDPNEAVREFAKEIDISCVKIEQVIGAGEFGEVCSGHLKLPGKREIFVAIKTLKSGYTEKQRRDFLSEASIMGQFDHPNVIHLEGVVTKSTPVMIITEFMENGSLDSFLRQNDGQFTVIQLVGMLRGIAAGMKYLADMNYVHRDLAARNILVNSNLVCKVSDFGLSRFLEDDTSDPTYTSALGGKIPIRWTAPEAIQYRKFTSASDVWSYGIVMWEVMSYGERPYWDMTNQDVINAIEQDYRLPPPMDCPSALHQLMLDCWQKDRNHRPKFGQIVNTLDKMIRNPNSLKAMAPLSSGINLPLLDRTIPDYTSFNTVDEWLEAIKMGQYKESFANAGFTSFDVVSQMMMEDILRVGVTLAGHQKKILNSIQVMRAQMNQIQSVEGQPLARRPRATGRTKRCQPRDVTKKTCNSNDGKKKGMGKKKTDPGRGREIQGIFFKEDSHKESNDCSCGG
EPHB1, sequence (P54762 whole entry, looked up): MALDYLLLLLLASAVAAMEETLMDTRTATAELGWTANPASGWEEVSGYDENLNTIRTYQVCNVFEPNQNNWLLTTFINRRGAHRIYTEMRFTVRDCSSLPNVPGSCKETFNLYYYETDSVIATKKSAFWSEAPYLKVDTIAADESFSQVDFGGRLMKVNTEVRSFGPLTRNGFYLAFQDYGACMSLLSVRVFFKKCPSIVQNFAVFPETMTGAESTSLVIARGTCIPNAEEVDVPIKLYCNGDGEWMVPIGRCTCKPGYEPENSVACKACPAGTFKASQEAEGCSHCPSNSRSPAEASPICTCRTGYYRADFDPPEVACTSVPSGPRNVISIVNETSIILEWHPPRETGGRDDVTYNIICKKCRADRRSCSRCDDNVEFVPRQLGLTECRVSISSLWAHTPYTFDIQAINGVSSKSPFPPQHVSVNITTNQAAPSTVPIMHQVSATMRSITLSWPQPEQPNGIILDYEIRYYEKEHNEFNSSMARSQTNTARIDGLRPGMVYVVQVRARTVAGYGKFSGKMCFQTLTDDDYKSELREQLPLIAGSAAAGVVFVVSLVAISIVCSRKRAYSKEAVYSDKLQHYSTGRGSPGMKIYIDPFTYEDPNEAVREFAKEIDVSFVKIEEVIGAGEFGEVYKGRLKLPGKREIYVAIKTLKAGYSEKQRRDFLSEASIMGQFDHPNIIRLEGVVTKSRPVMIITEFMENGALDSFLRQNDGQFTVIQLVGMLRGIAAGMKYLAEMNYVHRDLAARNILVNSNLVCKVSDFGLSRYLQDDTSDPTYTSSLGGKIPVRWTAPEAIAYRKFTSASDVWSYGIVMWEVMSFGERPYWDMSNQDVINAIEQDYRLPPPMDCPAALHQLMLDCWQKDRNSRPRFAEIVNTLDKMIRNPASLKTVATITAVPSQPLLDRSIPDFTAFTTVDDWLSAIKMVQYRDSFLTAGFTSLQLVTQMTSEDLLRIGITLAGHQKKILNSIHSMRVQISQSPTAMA
Fes, sequence (P07332 whole entry, looked up): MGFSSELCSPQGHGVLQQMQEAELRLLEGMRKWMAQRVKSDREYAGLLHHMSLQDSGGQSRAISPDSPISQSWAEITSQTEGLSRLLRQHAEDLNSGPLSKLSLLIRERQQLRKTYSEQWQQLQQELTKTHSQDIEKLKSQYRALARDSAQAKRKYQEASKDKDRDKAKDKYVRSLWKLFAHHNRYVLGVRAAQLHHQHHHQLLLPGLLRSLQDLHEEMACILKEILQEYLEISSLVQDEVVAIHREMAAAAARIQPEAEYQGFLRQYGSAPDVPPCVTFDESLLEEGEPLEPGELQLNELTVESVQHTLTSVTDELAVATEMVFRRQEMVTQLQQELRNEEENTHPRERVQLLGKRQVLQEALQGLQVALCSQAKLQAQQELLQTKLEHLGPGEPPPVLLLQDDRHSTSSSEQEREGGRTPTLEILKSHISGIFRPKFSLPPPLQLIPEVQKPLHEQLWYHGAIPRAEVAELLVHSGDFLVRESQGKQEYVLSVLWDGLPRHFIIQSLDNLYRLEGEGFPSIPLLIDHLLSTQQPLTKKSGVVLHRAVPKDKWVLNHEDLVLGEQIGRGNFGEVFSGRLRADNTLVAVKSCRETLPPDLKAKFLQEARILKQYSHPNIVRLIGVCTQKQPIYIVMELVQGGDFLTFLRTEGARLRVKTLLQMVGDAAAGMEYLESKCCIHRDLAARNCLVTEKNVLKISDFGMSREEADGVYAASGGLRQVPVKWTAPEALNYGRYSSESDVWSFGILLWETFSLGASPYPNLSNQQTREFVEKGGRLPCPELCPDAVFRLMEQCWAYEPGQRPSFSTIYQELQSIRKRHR
FGFR3, sequence (P22607 whole entry, looked up): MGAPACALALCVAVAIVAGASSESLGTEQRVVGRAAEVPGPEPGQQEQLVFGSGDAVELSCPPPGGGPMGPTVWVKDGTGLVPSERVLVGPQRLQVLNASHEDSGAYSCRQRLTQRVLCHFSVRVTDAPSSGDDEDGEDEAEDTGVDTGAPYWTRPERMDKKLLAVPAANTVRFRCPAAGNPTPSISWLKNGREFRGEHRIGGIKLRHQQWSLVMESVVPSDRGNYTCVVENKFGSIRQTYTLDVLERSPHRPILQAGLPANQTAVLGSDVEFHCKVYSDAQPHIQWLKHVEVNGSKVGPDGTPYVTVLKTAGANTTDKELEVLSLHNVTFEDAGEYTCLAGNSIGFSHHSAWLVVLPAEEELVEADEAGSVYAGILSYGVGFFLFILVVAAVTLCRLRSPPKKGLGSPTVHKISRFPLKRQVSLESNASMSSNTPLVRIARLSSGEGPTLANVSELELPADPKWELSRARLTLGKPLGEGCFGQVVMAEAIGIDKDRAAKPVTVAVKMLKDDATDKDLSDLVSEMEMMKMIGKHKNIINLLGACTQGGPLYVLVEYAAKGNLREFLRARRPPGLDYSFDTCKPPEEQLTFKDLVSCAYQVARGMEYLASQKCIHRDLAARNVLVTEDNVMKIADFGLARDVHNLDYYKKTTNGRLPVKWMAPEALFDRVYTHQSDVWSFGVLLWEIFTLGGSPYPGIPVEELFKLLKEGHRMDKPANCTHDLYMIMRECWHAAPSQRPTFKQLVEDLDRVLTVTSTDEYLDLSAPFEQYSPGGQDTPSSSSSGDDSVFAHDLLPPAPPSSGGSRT

SH2 binding enrichment (SHP2-C SH2)	SH2 binding enrichment (c-Src SH2)	SH2 binding enrichment (Grb2 SH2)	Sequence	phosphorylation enrichment (FGFR3)	phosphorylation enrichment (AncSZ)	phosphorylation enrichment (Fes)	phosphorylation enrichment (Jak2)	phosphorylation enrichment (Fyn)	phosphorylation enrichment (EPHB2)	phosphorylation enrichment (c-Abl (mouse))	phosphorylation enrichment (Fer (mouse))	phosphorylation enrichment (FGFR1)	phosphorylation enrichment (EPHB1)	phosphorylation enrichment (c-Src)	phosphorylation enrichment (Hck)	phosphorylation enrichment (MERTK)
0.822	0.495	0.824	VQEDIYDEFVV [ALDH2_Y332_E337V]	0.886	1.55	1.25	1.37	3.96	0.827	1.75	5.77	0.599	0.676	3.57	2.81	3.17
0.891	0.805	1.36	TPRNTYKMTSL [MKI67_Y849]	0.445	0.477	0.512	0.477	0.475	0.545	0.496	0.443	0.386	0.323	0.459	0.395	0.428
0.666	0.572	1.07	QPTPGYEVGQR [TSC2_Y1788_E1783Q]	0.621	0.637	0.759	0.444	0.541	0.474	0.443	0.21	0.609	0.454	0.329	0.535	0.255
0.766	5.64	0.962	IVRSPYEDLED [VHL_Y185_L184P]	0.704	1.31	1.16	1.35	0.506	0.682	0.748	0.562	0.571	0.58	0.531	0.528	0.533
